B1: CPOX (parent)
chain: HAPTIHFNYRYFEVEEADGNKQWW

Variants of: B1
Assay: protein stability index of a GFP-peptide fusion (GPS, HEK-293T) (PSI 1-6); higher = more stable
Settings: c terminus: a fixed tail appended
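Further: lentivirally expressed fusions sorted by FACS into six bins by GFP to DsRed ratio, PSI derived from sequencing read proportions per bin multiplied by bin number.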

First: N20I
Second: N20W
The protein stability index of the first is higher: 2.34 for the first, 1.88 for the second.

Compared with N20G, N20L is lower in protein stability index: 2.38 for the first, 2.12 for the second.

Going from N20C to N20V, the protein stability index rises from 1.87 to 2.27.

Compared with N20Y, N20Q is higher in protein stability index: 1.66 for the first, 2.95 for the second.

First: N20A
Second: N20H
The protein stability index of the first is lower: 1.76 for the first, 2.38 for the second.

Compared with N20F, N20E is higher in protein stability index: 1.07 for the first, 2.75 for the second.

Going from H6Q to H6W, the protein stability index falls from 2.52 to 1.59.

Compared with H6V, H6R is higher in protein stability index: 1.61 for the first, 2.04 for the second.

Compared with H6S, H6P is lower in protein stability index: 2.31 for the first, 1.89 for the second.

First: H6Y
Second: H6T
The protein stability index of the first is higher: 2.68 for the first, 2.42 for the second.

Going from H6N to H6M, the protein stability index falls from 2.5 to 1.94.

Going from H6L to F12S, the protein stability index rises from 1.82 to 2.87.

Going from F12K to F12A, the protein stability index falls from 3.04 to 2.49.

Compared with F12I, F12L is higher in protein stability index: 2.33 for the first, 2.64 for the second.

Going from F12H to F12N, the protein stability index rises from 3.01 to 3.05.

Going from F12W to F12E, the protein stability index rises from 1.99 to 2.99.

Compared with F12P, F12G is higher in protein stability index: 3.12 for the first, 3.51 for the second.

First: F12Y
Second: F12T
The protein stability index of the first is lower: 2.84 for the first, 3.08 for the second.

Compared with F12Q, F12M is lower in protein stability index: 2.63 for the first, 2.52 for the second.

Going from F12R to F12D, the protein stability index rises from 2.96 to 3.51.

Going from F12C to N8G, the protein stability index rises from 2.02 to 2.36.

Going from N8M to N8Y, the protein stability index falls from 2.53 to 2.02.

Compared with N8S, N8V is lower in protein stability index: 3.03 for the first, 1.57 for the second.

Compared with N8E, N8A is higher in protein stability index: 2.1 for the first, 2.22 for the second.

Compared with N8P, N8K is lower in protein stability index: 2.69 for the first, 1.67 for the second.

Going from N8T to N8R, the protein stability index rises from 1.87 to 2.83.

Going from N8F to N8I, the protein stability index falls from 1.79 to 1.26.

Compared with N8Q, N8D is higher in protein stability index: 2.48 for the first, 2.75 for the second.

Compared with N8W, Y11P is higher in protein stability index: 1.52 for the first, 2.98 for the second.

Compared with Y11K, Y11F is lower in protein stability index: 2.84 for the first, 2.26 for the second.

First: Y11W
Second: Y11N
The protein stability index of the first is lower: 2.79 for the first, 2.98 for the second.

Compared with Y11T, Y11C is lower in protein stability index: 3.23 for the first, 1.99 for the second.

Going from Y11R to Y11G, the protein stability index rises from 2.36 to 2.62.

Compared with Y11L, Y11S is higher in protein stability index: 2.39 for the first, 2.92 for the second.

Compared with Y11E, Y11M is lower in protein stability index: 3.35 for the first, 2.42 for the second.

First: Y11I
Second: Y11A
The protein stability index of the first is lower: 2.16 for the first, 3.23 for the second.

Compared with Y11V, Y11H is higher in protein stability index: 2.12 for the first, 3.13 for the second.

Compared with Y11D, E16A is lower in protein stability index: 3.12 for the first, 1.67 for the second.

Compared with E16N, E16I is higher in protein stability index: 1.83 for the first, 2.29 for the second.

First: E16M
Second: E16C
The protein stability index of the first is higher: 2.81 for the first, 1.67 for the second.

First: E16Q
Second: E16L
The protein stability index of the first is higher: 2.39 for the first, 1.44 for the second.

Compared with E16F, E16G is higher in protein stability index: 1.44 for the first, 2.21 for the second.

Compared with E16D, E16S is higher in protein stability index: 2.13 for the first, 2.24 for the second.

Compared with E16H, E16K is higher in protein stability index: 1.82 for the first, 2.18 for the second.

Going from E16R to E16Y, the protein stability index falls from 1.91 to 1.37.

First: E16T
Second: E16P
The protein stability index of the first is higher: 2.53 for the first, 1.83 for the second.

First: R10S
Second: R10M
The protein stability index of the first is lower: 2.07 for the first, 2.37 for the second.

Compared with R10Y, R10G is higher in protein stability index: 2.27 for the first, 2.42 for the second.

Compared with R10D, R10L is lower in protein stability index: 3.03 for the first, 2.25 for the second.

Going from R10E to R10T, the protein stability index falls from 2.7 to 2.55.

Compared with R10I, R10P is lower in protein stability index: 2.87 for the first, 2.38 for the second.

First: R10Q
Second: R10K
The protein stability index of the first is higher: 2.81 for the first, 2.47 for the second.

First: R10W
Second: R10C
The protein stability index of the first is higher: 1.99 for the first, 1.5 for the second.

Going from R10N to R10H, the protein stability index rises from 2.12 to 2.44.

Compared with R10V, R10A is higher in protein stability index: 2.48 for the first, 2.56 for the second.

Going from R10F to V14T, the protein stability index rises from 1.77 to 2.43.

Going from V14M to V14E, the protein stability index rises from 2.06 to 3.62.

Compared with V14P, V14G is higher in protein stability index: 2.29 for the first, 3.15 for the second.

Going from V14C to V14N, the protein stability index rises from 1.82 to 2.42.

First: V14W
Second: V14L
The protein stability index of the first is lower: 2.35 for the first, 2.37 for the second.

Going from V14S to V14R, the protein stability index falls from 2.44 to 2.29.

First: V14F
Second: V14Q
The protein stability index of the first is lower: 2.11 for the first, 2.85 for the second.

First: V14Y
Second: V14D
The protein stability index of the first is lower: 2.23 for the first, 3.06 for the second.

Going from V14K to V14A, the protein stability index falls from 2.85 to 2.52.

Going from V14H to V14I, the protein stability index rises from 2.4 to 2.44.

Going from D18S to D18K, the protein stability index rises from 2 to 2.16.

Compared with D18M, D18F is higher in protein stability index: 1.7 for the first, 3.24 for the second.

Going from D18G to D18Y, the protein stability index falls from 2.45 to 1.07.

Going from D18P to D18H, the protein stability index rises from 1.71 to 2.86.

First: D18E
Second: D18C
The protein stability index of the first is higher: 2.63 for the first, 1.61 for the second.

Going from D18N to D18V, the protein stability index falls from 2.32 to 1.68.

First: D18T
Second: D18R
The protein stability index of the first is lower: 1.89 for the first, 2.18 for the second.

Compared with D18Q, D18A is lower in protein stability index: 3.07 for the first, 2.6 for the second.

Compared with D18L, D18I is higher in protein stability index: 1.3 for the first, 1.5 for the second.

Compared with G19P, G19K is higher in protein stability index: 2.04 for the first, 2.17 for the second.

First: G19D
Second: G19M
The protein stability index of the first is higher: 3.04 for the first, 2.06 for the second.

Compared with G19A, G19H is lower in protein stability index: 2.33 for the first, 1.8 for the second.

Compared with G19R, G19F is higher in protein stability index: 2.25 for the first, 2.46 for the second.

First: G19Y
Second: G19L
The protein stability index of the first is higher: 3.23 for the first, 1.87 for the second.

First: G19T
Second: G19E
The protein stability index of the first is lower: 2.26 for the first, 2.48 for the second.

Going from G19W to G19Q, the protein stability index rises from 1.79 to 2.11.

Going from G19N to G19S, the protein stability index falls from 2.22 to 2.19.

First: G19I
Second: G19V
The protein stability index of the first is lower: 2.07 for the first, 2.11 for the second.

In the case of G19C, the protein stability index is reported as 1.97.
